From PMC12434308 (Nature chemical biology, 2021)
“And” between values parts separate entries of the source, which are not always exact repeats. Equal entries are not always repeated.

Target: SARS-CoV-2 S protein (SARS-CoV-2) (UniProt P0DTC2)
Assay: native MS

SARS-CoV-2 S protein (from UniProt P0DTC2) (natural protein)
stoichiometry N: 2 and 6
